Substrate in data set [1]: O=[N+]([O-])c1ccccc1O[C@@H]1O[C@H](CO)[C@H](O)[C@H](O)[C@H]1O
Description: HPLC hydrolysis assay (o-nitrophenol release), Lineweaver-Burk. The note with it: no UDP or UDP-sugar, phosphate buffer (pH 6.0 in methods, optimum pH 7), 37 °C. The data set is classed as biochemical, Albuca bracteata.

Substrate in data set [2]: O=c1cc(-c2ccccc2)oc2cc(O)cc(O)c12
The data set can be described thus: HPLC glucosylation assay, Lineweaver-Burk. To be noted: 1 mM UDP-Glc fixed, phosphate buffer pH 8.0, 50 °C, apparent Km. The data set is classed as biochemical, Albuca bracteata.

B1: OcUGT1 (Albuca bracteata) (protein)
chain: MGSEAHGALHILFFPLMAPGHMLPMVDMAKLFAARGLKPTIFTTPGNVRLIQPSIDNANGSGHQNPIQLFTVPFPSIDGIPDGCENLSSVTQELHVKFFVGLGNLREPFKDSLARLRPDCIVSDMFLPWTADEAAERGMPRLVFHGSNFFTQCAYRSIEHHKVLESLAPGEDTFVIPGLPHRVELRRSTMPDIQTFAPELMDIILQTREAELKSLGTVMNTFYELEPDYADHFCNVMGRRAWNIGPLSLCNKDVADKWRRGNEASITSEFCLNWLDSQEPSSVVYVCFGSLSDFTTAQLREIAAGLEASGRPFVWVVRNHSEEWIPEGLEERVGGKGLIIRGWAPQILILSHVAVGGFLTHCGWNSILEGVSAGLPFVTWPLFADQFYNERLIVDVLKIGVAVGSNEYANKPEERKIIEAAKIEATINELMGDGKDADERREKARALGELAQRAVEKGGSSYRDLDNLISELVEKRSAV
notes: full-length ORF of 1440 bp (479 residues by ORF length)
As to B1, the Km (as a rule, the substrate concentration at which the rate is half of its maximum) in data set [1] worked out at 6.897 ± 1.995 mM; in data set [2] it was 0.1506 ± 0.0139 mM.

The record behind these values is publication PMC5897352, “Isolation and characterization of a multifunctional flavonoid glycosyltransferase from Ornithogalum caudatum with glycosidase activity” (Scientific Reports, 2018).
